Assay results published in patent US20060051395A1 (AFFINERGY, published 2006).
Ends that are not written are not given here.

Molecular target: T1, Bone Morphogenic Protein 2 (BMP-2) (UniProt P12643 283-396)
T1 construct: Bought from Medtronic; In the phage ELISAs it was biotinylated with NHS-biotin (about one biotin per molecule) and held on streptavidin plates; In the peptide assays it was unlabelled
Experiment: estimated affinity from solution-phase binding of biotinylated peptide and BMP-2, capture on streptavidin plate, anti-BMP antibody detection

T1 sequence (P12643 283-396 limits assumed): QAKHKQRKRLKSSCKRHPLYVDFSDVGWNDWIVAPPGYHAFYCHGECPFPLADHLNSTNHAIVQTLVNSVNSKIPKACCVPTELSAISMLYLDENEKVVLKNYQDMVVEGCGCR

B1: AFF-2009 (peptide)
peptide: SSFEPLRFPLKGVPVSR
modifications: not fully specified (residues 1, 2, 16, 17, C-terminus); also: C-terminal Lys(ε-biotin), linker before it not given here
notes: Synthetic form of the peptide of clone AP02-60; not shown: C-terminal biotinylated lysine; any linker before it is not spelled out for this peptide
- Kd: 10 nM

B2: AFF-2012 (peptide)
peptide: SSSVDLYFPLKGDVVSR
modifications: not fully specified (residues 1, 2, 16, 17, C-terminus); also: C-terminal Lys(ε-biotin), linker before it not given here
notes: Synthetic form of the peptide of clone AP02-59; not shown: C-terminal biotinylated lysine; any linker before it is not spelled out for this peptide
- Kd: 9 nM
